According to the supplement of paper PMC10126150:
± gives the standard deviation of the averaged measurements.

Test system: ATP
Test: switch fluorescence ratio, 500 uM ATP over buffer (Cy3 cluster intensity, sum of 5 cycles each) (fold (ratio)); higher = stronger signal-on switching upon ATP binding; sequences stand for … in TCGTCGGCAGCGTCAGATGTGTATAAGAGACAGTTTTTTTTTTTTTTTTTTTTTTTTT…TC
Conditions: aptamer strand: ATP DNA aptamer (quencher-CACCTGGGGGAGTATTGCGGAGGAAGG + anchor), 100 nM annealed; ATP concentration: 500 uM
Outline: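 Switching-strand clusters labelled with Cy3 on a modified Illumina MiSeq flow-cell were annealed to 100 nM quencher-labelled ATP aptamer, imaged in selection buffer, and re-imaged after 15 min with 500 uM ATP at 22 °C. This was done over five cycles with NaOH stripping and re-annealing in between. The fluorescence ratio is summed target-cycle over summed buffer-cycle Cy3 intensity per cluster, averaged per switch-domain sequence, excluding clusters outside 100-1000 RFU.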
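Further: ATP exposure 15 min at 22 °C before imaging.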

Sequence	switch fluorescence ratio
CGGTCGTTGT	1.02 ± 0.03
CGGTGAAAAT	0.97 ± 0.027
CGGTGAATAT	0.9712 ± 0.0087
CGGTGCACGG	1.05 ± 0.027
CGGTGGATCA	0.992 ± 0.017
CGGTGGGATG	0.9784 ± 0.0072
CGGTGGGCCG	1.05 ± 0.025
CGGTGGTTTG	0.996 ± 0.026
CGGTGTAGCC	1.02 ± 0.014
CGGTGTATTC	0.988 ± 0.011
CGGTGTGAGG	0.988 ± 0.031
CGGTGTGCCT	0.966 ± 0.029
CGGTGTGTGC	1.04 ± 0.026
CGGTGTTGTG	0.986 ± 0.024
CGGTTACCTG	0.9708 ± 0.0074
CGGTTAGTTC	0.946 ± 0.023
CGGTTATTTA	1.04 ± 0.011
CGGTTCGCGA	1.03 ± 0.019
CGGTTCGTGG	1.004 ± 0.0068
CGGTTGCATT	1.04 ± 0.031
CGGTTGCGTT	0.987 ± 0.035
CGGTTGCTAG	0.997 ± 0.042
CGGTTGGAGC	0.988 ± 0.042
CGGTTGGGCC	0.993 ± 0.014
CGGTTGGGGG	0.962 ± 0.033

Sequence	switch fluorescence ratio
CGGTTGGGTT	0.99659 ± 6.3e-05
CGGTTGTCGA	1.01 ± 0.023
CGGTTGTGCG	0.969 ± 0.025
CGGTTTATGG	0.943 ± 0.022
CGGTTTGACA	0.9954 ± 0.0092
CGGTTTGCGT	0.9748 ± 0.0029
CGGTTTGTCT	0.986 ± 0.018
CGGTTTTGCG	0.985 ± 0.024
CGGTTTTGGG	0.977 ± 0.012
CGGTTTTTGC	1.03 ± 0.058
CGGTTTTTTG	0.964 ± 0.014
CGTAAAGGCC	0.9465 ± 0.0012
CGTAAAGTAG	1.01 ± 0.022
CGTAATATTA	1.07 ± 0.01
CGTACAAAAG	0.998 ± 0.03
CGTACGGCTC	1.058 ± 0.0038
CGTACTAGAT	0.9959 ± 0.0086
CGTACTGGAG	1.01 ± 0.056
CGTAGAGGAA	0.994 ± 0.03
CGTAGAGGGG	0.9858 ± 0.0073
CGTAGCGTTT	0.998 ± 0.04
CGTAGGAGGA	0.98 ± 0.036
CGTAGGGGAA	0.993 ± 0.02
CGTAGGGTCA	0.9871 ± 0.0082
CGTAGGGTTA	1.01 ± 0.025

Sequence	switch fluorescence ratio
CGTAGGTAAT	1.01 ± 0.04
CGTAGTACGC	1.12 ± 0.04
CGTAGTTTAG	1.05 ± 0.027
CGTAGTTTAT	1.07 ± 0.022
CGTAGTTTTG	1.007 ± 0.0074
CGTATAAAAA	0.971 ± 0.068
CGTATAGGGA	1.015 ± 0.01
CGTATAGGTC	0.999 ± 0.033
CGTATATGGG	0.995 ± 0.022
CGTATCATGC	0.985 ± 0.011
CGTATCCCGT	0.974 ± 0.014
CGTATGAAGC	0.972 ± 0.02
CGTATGCAAG	0.967 ± 0.041
CGTATGTGGT	0.97 ± 0.019
CGTATTCTGT	0.9845 ± 0.0037
CGTATTGCGC	0.971 ± 0.038
CGTATTTTAC	1.08 ± 0.038
CGTATTTTGC	1.03 ± 0.066
CGTCAGCGGC	1.25 ± 0.053
CGTCAGGCAT	1.17 ± 0.026
CGTCATCAGG	1.042 ± 0.0069
CGTCATGTCT	1 ± 0.065
CGTCATTGGG	0.992 ± 0.045
CGTCCCAGCT	1.12 ± 0.018
CGTCCGAGGT	1.3 ± 0.048

Sequence	switch fluorescence ratio
CGTCCTGGGC	1.0441 ± 0.00044
CGTCGCGGCA	0.989 ± 0.026
CGTCGGGTGG	0.9882 ± 0.0028
CGTCGTACGC	0.981 ± 0.13
CGTCGTTCTC	1.02 ± 0.07
CGTCTAAGTC	1.01 ± 0.046
CGTCTAAGTG	0.99 ± 0.019
CGTCTACATG	1.03 ± 0.027
CGTCTATGGG	1 ± 0.014
CGTCTGCGCG	0.972 ± 0.081
CGTCTGGCGG	1.01 ± 0.021
CGTCTTAGGG	0.966 ± 0.016
CGTCTTTAGA	0.987 ± 0.01
CGTGAAAGG	0.9546 ± 0.0042
CGTGAATTTG	0.987 ± 0.026
CGTGACCAGG	1.14 ± 0.029
CGTGACGGGG	0.978 ± 0.043
CGTGAGTTGG	0.992 ± 0.014
CGTGATCAGA	0.996 ± 0.039
CGTGATGAGG	0.989 ± 0.028
CGTGATTGCT	1.03 ± 0.074
CGTGATTTTT	1 ± 0.041
CGTGCAGCGG	1 ± 0.014
CGTGCAGGGG	1.057 ± 0.0013
CGTGCGGCGT	0.9829 ± 0.0026
